Where a chain is given by its changes, count along the chain named.
B1: ヒト型化#23-57-137-1抗体 (H鎖バージョン"a"、L鎖バージョン"j") (antibody, IgG1, V domains shown)
VH: QVQLVESGGGVVQPGRSLRLSCAASGFTFSSYGMSWVRQAPGKGLEWVATISSGGSYTYYPDSVKGRFTISRDNSKNTLYLQMNSLRAEDTAVYYCARQTTMTYFAYWGQGTLVTVSS
VL: QLVLTQSPSASASLGASVKLTCTLSSQHSTYTIEWYQQQPEKGPKYLMDLKQDGSHSTGDGIPDRFSGSSSGAERYLTISSLQSEDEADYYCGVGDTIKEQFVYVFGGGTKLTVLG
notes: Human Cγ1 (IgG1) and human lambda C region; Expressed in COS-7 cells; also called hMBC1HcDNA/pCOS1 + hMBC1Ljλ/pCOS1
B2: ヒト型化#23-57-137-1抗体 (H鎖バージョン"a"、L鎖バージョン"l") (antibody, IgG1, V domains shown)
VH: B1 VH
VL: B1 VL with L47V
notes: Human Cγ1 (IgG1) and human lambda C region; Expressed in COS-7 cells; also called hMBC1HcDNA/pCOS1 + hMBC1Llλ/pCOS1
B3: ヒト型化#23-57-137-1抗体 (H鎖バージョン"a"、L鎖バージョン"m") (antibody, IgG1, V domains shown)
VH: B1 VH
VL: B1 VL with K45R
notes: Human Cγ1 (IgG1) and human lambda C region; Expressed in COS-7 cells; also called hMBC1HcDNA/pCOS1 + hMBC1Lmλ/pCOS1
B4: ヒト型化#23-57-137-1抗体 (H鎖バージョン"a"、L鎖バージョン"t") (antibody, IgG1, V domains shown)
VH: B1 VH
VL: B1 VL with K45R, L47V, Y91I
notes: Human Cγ1 (IgG1) and human lambda C region; Expressed in COS-7 cells; also called hMBC1HcDNA/pCOS1 + hMBC1Ltλ/pCOS1
B5: ヒト型化H鎖バージョン"a"とキメラL鎖を組み合わせた抗体 (antibody, V domains shown)
VH: B1 VH
VL: QLVLTQSSSASFSLGASAKLTCTLSSQHSTYTIEWYQQQPLKPPKYVMDLKQDGSHSTGDGIPDRFSGSSSGADRYLSISNIQPEDEAMYICGVGDTIKEQFVYVFGGGTKVTVLG
notes: Humanised H chain version a with human Cγ1; The chimeric L chain has the mouse V region
B6: ヒト型化#23-57-137-1抗体 (H鎖バージョン"a"、L鎖バージョン"o") (antibody, IgG1, V domains shown)
VH: B1 VH
VL: B1 VL with K45R, L47V
notes: Human Cγ1 (IgG1) and human lambda C region; Expressed in COS-7 cells; also called hMBC1HcDNA/pCOS1 + hMBC1Loλ/pCOS1
B7: ヒト型化#23-57-137-1抗体 (H鎖バージョン"a"、L鎖バージョン"q") (antibody, IgG1, V domains shown)
VH: B1 VH
VL: B1 VL with Y91I
notes: Human Cγ1 (IgG1) and human lambda C region; Expressed in COS-7 cells for the ELISA; also made in CHO cells; also called hMBC(q); hMBC1HcDNA + hMBC1Lqλ

Molecular target: T1, ヒトPTHrP(1-34) (human)
T1 construct: Synthetic peptide, bought (Peninsula; ペプチド研究所); Coated on the plate in the ELISA; also called human parathyroid hormone related peptide (1-34)
Assay: ELISA on plate-coated human PTHrP(1-34)

Binding result, binds:
B1
B2
B3
B4
B5
B6
B7
